B1: TCAP (parent)
chain: YQRVLPLPIFTPAKMGATKEERED

Variants of: B1
Assay: protein stability index of a GFP-peptide fusion (GPS, HEK-293T) (PSI 1-6); higher = more stable
Conditions: c terminus: a fixed tail appended
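Further: lentivirally expressed fusions sorted by FACS into six bins by GFP to DsRed ratio, PSI derived from sequencing read proportions per bin multiplied by bin number.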

Variant	protein stability index
YQRALPLPIFTPAKMGATKEERED [V4A]	1.71
YQRYLPLPIFTPAKMGATKEERED [V4Y]	2.26
YQRNLPLPIFTPAKMGATKEERED [V4N]	1.83
YQRFLPLPIFTPAKMGATKEERED [V4F]	2.27
YQRDLPLPIFTPAKMGATKEERED [V4D]	1.52
YQRMLPLPIFTPAKMGATKEERED [V4M]	1.53
YQRRLPLPIFTPAKMGATKEERED [V4R]	1.7
YQRSLPLPIFTPAKMGATKEERED [V4S]	1.72
YQRHLPLPIFTPAKMGATKEERED [V4H]	1.37
YQRILPLPIFTPAKMGATKEERED [V4I]	2.07
YQRCLPLPIFTPAKMGATKEERED [V4C]	2
YQRQLPLPIFTPAKMGATKEERED [V4Q]	1.9
YQRELPLPIFTPAKMGATKEERED [V4E]	1.93
YQRTLPLPIFTPAKMGATKEERED [V4T]	1.88
YQRPLPLPIFTPAKMGATKEERED [V4P]	2.67
YQRWLPLPIFTPAKMGATKEERED [V4W]	2.55
YQRKLPLPIFTPAKMGATKEERED [V4K]	1.8
YQRGLPLPIFTPAKMGATKEERED [V4G]	2.82
YQRLLPLPIFTPAKMGATKEERED [V4L]	2.18
YQRVLPLPIFTTAKMGATKEERED [P12T]	3.26
YQRVLPLPIFTKAKMGATKEERED [P12K]	3.2
YQRVLPLPIFTHAKMGATKEERED [P12H]	3.12
YQRVLPLPIFTMAKMGATKEERED [P12M]	2.91
YQRVLPLPIFTGAKMGATKEERED [P12G]	3.11

Variant	protein stability index
YQRVLPLPIFTFAKMGATKEERED [P12F]	2.98
YQRVLPLPIFTWAKMGATKEERED [P12W]	1.94
YQRVLPLPIFTVAKMGATKEERED [P12V]	3.07
YQRVLPLPIFTRAKMGATKEERED [P12R]	3.47
YQRVLPLPIFTDAKMGATKEERED [P12D]	2.92
YQRVLPLPIFTNAKMGATKEERED [P12N]	2.82
YQRVLPLPIFTEAKMGATKEERED [P12E]	3.02
YQRVLPLPIFTCAKMGATKEERED [P12C]	2.16
YQRVLPLPIFTQAKMGATKEERED [P12Q]	3.84
YQRVLPLPIFTAAKMGATKEERED [P12A]	3.44
YQRVLPLPIFTSAKMGATKEERED [P12S]	3.2
YQRVLPLPIFTIAKMGATKEERED [P12I]	3.48
YQRVLPLPIFTYAKMGATKEERED [P12Y]	2.74
YQRVLPLPIFTLAKMGATKEERED [P12L]	2.64
YQRVLPLIIFTPAKMGATKEERED [P8I]	2.15
YQRVLPLHIFTPAKMGATKEERED [P8H]	2.15
YQRVLPLKIFTPAKMGATKEERED [P8K]	2.18
YQRVLPLDIFTPAKMGATKEERED [P8D]	1.57
YQRVLPLLIFTPAKMGATKEERED [P8L]	1.64
YQRVLPLWIFTPAKMGATKEERED [P8W]	2.73
YQRVLPLMIFTPAKMGATKEERED [P8M]	2.36
YQRVLPLCIFTPAKMGATKEERED [P8C]	2.62
YQRVLPLFIFTPAKMGATKEERED [P8F]	1.45
YQRVLPLTIFTPAKMGATKEERED [P8T]	2.32

Variant	protein stability index
YQRVLPLVIFTPAKMGATKEERED [P8V]	2
YQRVLPLEIFTPAKMGATKEERED [P8E]	2.46
YQRVLPLYIFTPAKMGATKEERED [P8Y]	2.51
YQRVLPLAIFTPAKMGATKEERED [P8A]	1.96
YQRVLPLNIFTPAKMGATKEERED [P8N]	2.11
YQRVLPLQIFTPAKMGATKEERED [P8Q]	2.12
YQRVLPLGIFTPAKMGATKEERED [P8G]	1.37
YQRVLPLRIFTPAKMGATKEERED [P8R]	1.88
YQRVLPLPIFDPAKMGATKEERED [T11D]	3.96
YQRVLPLPIFNPAKMGATKEERED [T11N]	3.49
YQRVLPLPIFRPAKMGATKEERED [T11R]	3.21
YQRVLPLPIFFPAKMGATKEERED [T11F]	2.25
YQRVLPLPIFGPAKMGATKEERED [T11G]	3.12
YQRVLPLPIFYPAKMGATKEERED [T11Y]	2.62
YQRVLPLPIFPPAKMGATKEERED [T11P]	3.31
YQRVLPLPIFQPAKMGATKEERED [T11Q]	3.44
YQRVLPLPIFLPAKMGATKEERED [T11L]	2.71
YQRVLPLPIFKPAKMGATKEERED [T11K]	3.63
YQRVLPLPIFAPAKMGATKEERED [T11A]	1.87
YQRVLPLPIFEPAKMGATKEERED [T11E]	2.52
YQRVLPLPIFMPAKMGATKEERED [T11M]	2.08
YQRVLPLPIFHPAKMGATKEERED [T11H]	3.49
YQRVLPLPIFVPAKMGATKEERED [T11V]	2.67
YQRVLPLPIFCPAKMGATKEERED [T11C]	1.79

Variant	protein stability index
YQRVLPLPIFIPAKMGATKEERED [T11I]	2.68
YQRVLPLPIFWPAKMGATKEERED [T11W]	2.25
YQRVLPLPIFSPAKMGATKEERED [T11S]	2.36
YQRVLPLPILTPAKMGATKEERED [F10L]	3.73
YQRVLPLPIDTPAKMGATKEERED [F10D]	4.32
YQRVLPLPIKTPAKMGATKEERED [F10K]	4.08
YQRVLPLPIQTPAKMGATKEERED [F10Q]	4.5
YQRVLPLPIGTPAKMGATKEERED [F10G]	4.44
YQRVLPLPIITPAKMGATKEERED [F10I]	3.72
YQRVLPLPINTPAKMGATKEERED [F10N]	4.05
YQRVLPLPIRTPAKMGATKEERED [F10R]	4.18
YQRVLPLPIYTPAKMGATKEERED [F10Y]	2.48
YQRVLPLPIATPAKMGATKEERED [F10A]	4.3
YQRVLPLPITTPAKMGATKEERED [F10T]	4.04
YQRVLPLPIETPAKMGATKEERED [F10E]	4.33
YQRVLPLPISTPAKMGATKEERED [F10S]	4.06
YQRVLPLPIPTPAKMGATKEERED [F10P]	4.14
YQRVLPLPICTPAKMGATKEERED [F10C]	3.63
YQRVLPLPIVTPAKMGATKEERED [F10V]	3.65
YQRVLPLPIMTPAKMGATKEERED [F10M]	3.71
YQRVLPLPIHTPAKMGATKEERED [F10H]	3.94
YQRVLPLPQFTPAKMGATKEERED [I9Q]	3.74

Source: the supplement of paper PMC10567573
